Reference: US20100210511A1, “Combination VEGFR2 Therapy with Temozolomide” (Bristol-Myers Squibb Company, priority 2009, published 2010)

B1: Compound 1: VEGFR2 specific inhibitor represented by SEQ ID NO: 4, 10Fn3-based, modified with a single branched 40 kDa PEG at the C-terminal cysteine (protein)
chain: GEVVAATPTSLLISWRHPHFPTRYYRITYGETGGNSPVQEFTVPLQPPTATISGLKPGVDYTITVYAVTDGRNGRLLSIPISINYRTEIDKPCQ
modifications: branched 40 kDa PEG at C-terminal cysteine

Key:
[1] = system: U87vIIILuc Glioblastoma Cells; experiment: Bioluminescent imaging (BLI) of U87vIIILuc tumor growth (Example 2); format: in vivo, NOD-SCID mice; settings: Compound 1 60 mg/kg IP 3x/week, TMZ 34 mg/kg orally QD×5
Text: (§1) Tumor Implantation. 9 week-old male NOD-SCID mice (Charles River Laboratories, Wilmington, Mass., USA) were anesthetized by 2% isoflurane. 5×10^4 U87vIIIluc tumor cells were implanted intracranially using the following stereotactic coordinates: 0.5 mm posterior, 2.5 mm lateral, and 3.5 mm intraparenchymal Animal care was kept in strict accordance with the institutional animal care and use committee of Massachusetts General Hospital.
(§2) Drug Administration. After randomization, 24 mice were divided into 4 groups (PBS, Compound 1 only, TMZ only, and Compound 1+TMZ) with 6 mice per group. PBS and Compound 1 (60 mg/kg) were delivered intraperitoneally in 200 ul IP volumes three times per week throughout the study until mice reached established criteria for euthanasia. Temozolomide (TMZ) was delivered orally (34 mg/kg) once daily for five days.
Scanning Mice were anesthetized using 1-2% isoflurane before intraperitoneal injection of D-luciferin salt (150 mg/kg in 200 ul PBS; Caliper Life Sciences, Hopkinton Mass.). Bioluminescent imaging (BLI) was performed in a high sensitivity, cooled CCD camera (IVIS®, Xenogen) at five-minute intervals until peak values were recorded for all mice. BLI imaging was performed on days 6, 13, 20 and 26.
Image Analysis. Living Image® software (Xenogen) was used for image capture and signal quantification. Imaging schedules are described in the treatment groups. […]

[2] = system: U87vIIILuc Glioblastoma Cells; experiment: Survival of NOD-SCID mice intracranially implanted with U87vIIILuc glioblastoma cells (Example 2); format: in vivo; settings: intracranial U87vIIILuc; Compound 1 60 mg/kg IP three times per week; TMZ 34 mg/kg orally once daily for five days; 6 mice per group
Text: as §1, §2
(§3) Results are shown in FIG. 1 (Compound 1=VEGFR2 specific inhibitor represented by SEQ ID NO: 4; Compound 2=TMZ; PBS=phosphate buffered saline (vehicle control)). The Y-axis indicates percent survival within each group over the length of the study Animals were followed for survival and sacrificed at the first sign of morbidity. Mean survival was 19, 29, 32 and 47 days for PBS, Compound 1, TMZ, and Compound 1+TMZ, respectively.

[3] = system: U87vIIILuc Glioblastoma Cells; experiment: Survival in U87vIIILuc glioma model, triple administration with radiation therapy (Example 3); format: in vivo, NOD-SCID mice; settings: radiation insensitive glioblastoma model; compared to RT alone or standard of care (TMZ+RT)
Experimental: Tumor implantation was performed as described above in Example 2.
Drug Administration. After randomization, 32 mice were divided into 4 groups (PBS, Radiation Therapy (RT) only, Compound 2 & RT, and Compound 1+Compound 2 & RT) with 8 mice per group. PBS and Compound 1 (60 mg/kg) were delivered intraperitoneally in 200 ul IP volumes three times per week throughout the study until mice reached established criteria for euthanasia. Compound 2 (TMZ) was delivered orally (34 mg/kg) once daily for five days. Compound 2 and RT treatments were initiated after the third dose of Compound 1.
Radiation Therapy. Mice were shielded in a custom-designed block with an aperture of 0.8 cm. After anesthetic induction (ketamine 118 mg/kg i.p.+xylazine 11.8 mg/kg i.p.), mice were irradiated to a total dose of 10 Gy in three daily fractions. 10 Gy were experimentally determined to be the highest tolerable dose for this model.
as §3, with “FIG. 5” for “FIG. 1”, “2=TMZ; RT=Radiation Therapy;” for “2=TMZ;”, “was 22, 23, 33” for “was 19, 29, 32”, “PBS, Radiation Therapy,” for “PBS,”, “Compound 2 & RT,” for “Compound 1, TMZ,”, “Compound 1+Compound 2 & RT,” for “Compound 1+TMZ,”

[4] = system: CD31 (endothelial blood vessel formation marker); experiment: Immunohistochemical staining for CD31 on brain tissue sections (microvascular density); format: in vivo, NOD-SCID mice; settings: Day 14 IHC analysis; compared to TMZ or PBS groups
Experimental: IHC staining for CD31 was performed on paraffin-embedded mouse brain tissue sections using Rat on mouse HRP-Polymer® (Biocare Medical). Briefly, sections were deparaffinized, rehydrated and treated with peroxidase (PEROXIDAZED 1, Biocare Medical) for 5 min at room temperature. To expose antigens, sections were treated with trypsin (CAREZYME 1®, Biocare Medical) for 10 min at 37° C. Unspecific protein was blocked by using Rodent Block M® (Biocare Medical) for 30 min. Thereafter, sections were incubated with rat monoclonal anti-CD31 (1:50, Biocare Medical) antibody for 2 h at room temperature. Subsequently, sections were incubated with Rat Probe® (Biocare Medical) for 15 min at room temperature, followed by incubation with Rat-Polymer HRP® (Biocare Medical) for 20 min at room temperature.
To visualize antigens in the tissue, DAB chromogen substrate (Biocare Medical) were used for 5 min Finally, sections were lightly counter-stained with Mayer's hematoxylin. For a negative control, the incubation step with primary antibody was omitted.
Immunohistochemical staining against CD31 (endothelial blood vessel formation marker), Ki67 (cell proliferation marker) or cleaved-caspase 3 (cellular apoptosis marker) was performed on paraffin-embedded brain tissue sections. […]

Row | Molecule | Day 13 mean BLI values (photons/sec×10^6) increased by, fold [1] | Mean survival [2] [days] | Survival benefit (in words) [3] | Blood vessel formation by CD31 staining [4]
1 | Cn1nnc2c(C(N)=O)ncn2c1=O [TMZ, temozolomide] | 6.17×10^1 fold | 32 |  | 
2 | B1 | 1.79×10^2 fold | 29 | can enhance survival | strongly reduced blood vessel formation
